Laboratory results: paper doi:10.1101/600387

Molecular target: Sulfolobus acidocaldarius R2-like ligand-binding oxidase (Sulfolobus acidocaldarius)
Experiment: crystal structure

Sulfolobus acidocaldarius R2-like ligand-binding oxidase (enzyme)
stoichiometry N: 2
